US12339286B2, “Metal-reducing enzymatic tag for optical and electron microscopy” (Colorado State University Research Foundation, priority 2018, dated 2025)
Where “and” joins values, the source holds several entries; their conditions need not be identical. Equal entries are not always repeated. Ends that are not written are not given here.

T1: Pseudomonas moraviensis stanleyea GRLMR-SeBP (glutathione reductase-like metalloid reductase, GRLMR, with the selenium nanoparticle binding peptide SeBP/SeBP1, (Pseudomonas moraviensis, UniProt A0A2A2PF31, INS452LTPHKHHKHLHA))
T1 sequence (A0A2A2PF31 1-452 INS452LTPHKHHKHLHA): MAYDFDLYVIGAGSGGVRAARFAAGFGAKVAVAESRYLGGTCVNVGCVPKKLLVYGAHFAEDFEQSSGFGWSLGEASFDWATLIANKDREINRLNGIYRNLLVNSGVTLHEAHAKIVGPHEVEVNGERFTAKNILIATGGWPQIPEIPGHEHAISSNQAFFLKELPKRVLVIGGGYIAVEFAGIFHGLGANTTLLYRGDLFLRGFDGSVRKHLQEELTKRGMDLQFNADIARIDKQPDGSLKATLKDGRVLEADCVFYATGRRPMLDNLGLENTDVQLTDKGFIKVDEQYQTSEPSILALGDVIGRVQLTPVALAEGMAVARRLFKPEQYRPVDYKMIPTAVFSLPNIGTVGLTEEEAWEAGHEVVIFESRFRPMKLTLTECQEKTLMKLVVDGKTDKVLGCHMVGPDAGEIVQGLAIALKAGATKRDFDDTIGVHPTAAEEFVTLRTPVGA


Legend:
[1] = target: Pseudomonas moraviensis stanleyea GRLMR (glutathione reductase-like metalloid reductase), without SeBP (Pseudomonas moraviensis, UniProt A0A2A2PF31); assay: KM and kcat study: NADPH consumption at 340 nm, V0 vs substrate concentration; assay type: biochemical; conditions: substrate HNaSeO3; PBS, pH 7.4; 13 μg of enzyme; 200 μM NADPH; 0.05 mM-2 mM substrate
Excerpt: (§1) Because of the dramatic difference in SeBP size, morphology and aggregation state that depends on SeBP concatenation to GRLMR, whether this concatenation also alters the kinetic properties of the enzyme was investigated. To explore this possibility, NADPH concentrations were monitored spectroscopically during GRLMR enzymatic reactions to establish fundamental enzymatic kinetics in the presence and absence of the peptide. FIG. 4 depicts the plots of V0s attained by the GRLMR with and without SeBP over a range of substrate concentrations.
(§2) Initial velocities (V0) of the GRLMR-SeBP were performed in various concentrations of HNaSeO3 or GSSG while monitoring 340 nm correlating to NADPH absorbance. The reactions were run in PBS, pH 7.4 and with 13 μg of enzyme with substrate SeO3^2− (1.5 μg of enzyme with substrate GSSG) and 200 μM of NADPH with 0.05 mM-2 mM of substrate. Enzymatic V0s were plotted against substrate concentration in OriginPro from which KM and kcat could then be calculated.

[2] = target: T1, Pseudomonas moraviensis stanleyea GRLMR-SeBP (glutathione reductase-like metalloid reductase, GRLMR, with the selenium nanoparticle binding peptide SeBP/SeBP1,; assay: as above; assay type: biochemical; conditions: substrate HNaSeO3; PBS, pH 7.4; 13 μg of enzyme; 200 μM NADPH; 0.05 mM-2 mM substrate
Excerpt: as §1, §2

[3] = target: glutathione reductase-like metalloid reductase (GRLMR) (Pseudomonas moraviensis stanleyae); assay: negative binding assay: phage (input 10^10 pfu) on wells coated with unreacted GRLMR, acid-eluted phage titered on E. coli

Sequence of Wild Type M13 phage (no inserted sequence) (P69168 19-424 limits assumed): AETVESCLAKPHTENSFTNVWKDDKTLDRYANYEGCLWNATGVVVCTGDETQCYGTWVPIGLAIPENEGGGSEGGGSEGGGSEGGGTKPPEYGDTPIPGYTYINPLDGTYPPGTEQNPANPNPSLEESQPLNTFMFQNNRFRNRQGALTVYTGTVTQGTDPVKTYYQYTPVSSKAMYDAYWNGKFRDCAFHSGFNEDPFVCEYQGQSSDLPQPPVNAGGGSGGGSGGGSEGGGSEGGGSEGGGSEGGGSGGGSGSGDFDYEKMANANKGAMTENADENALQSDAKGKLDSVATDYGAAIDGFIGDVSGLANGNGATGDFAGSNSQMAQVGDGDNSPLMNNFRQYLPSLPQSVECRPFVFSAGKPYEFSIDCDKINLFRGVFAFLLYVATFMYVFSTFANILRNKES

| Molecule | eluted phage titer (pfu) [3] | also measured |
| --- | --- | --- |
| O=[Se]([O-])O.[Na+] [HNaSeO3] | – | Km [1]: 1920 ± 1280 µM; kcat [1]: 0.38038 ± 0.1473 s⁻¹ and 0.38038 s⁻¹; Km [2]: 217 ± 57 µM; kcat [2]: 0.67193 ± 0.04143 s⁻¹ and 0.67193 s⁻¹ |
| Wild Type M13 phage (no inserted sequence) (from UniProt P69168 19-424) | 150000 pfu | – |
| THYNPLRINPIT-{M13 pIII} (peptide, not shown: large carriers, also: displayed on M13 phage pIII, linker not given here) [SeBP5 (…) displayed on M13 phage] | 680000 pfu | – |
| GWHSPHAHWRVK-{M13 pIII} (peptide, not shown: large carriers, also: displayed on M13 phage pIII, linker not given here) [SeBP4 (…) displayed on M13 phage] | 330000 pfu | – |
| GPHHMHHHRTHH-{M13 pIII} (peptide, not shown: large carriers, also: displayed on M13 phage pIII, linker not given here) [SeBP2 (…) displayed on M13 phage] | 2.1e+09 pfu | – |
| WPRHHWHTNYMR-{M13 pIII} (peptide, not shown: large carriers, also: displayed on M13 phage pIII, linker not given here) [SeBP3 (…) displayed on M13 phage] | 3.9e+08 pfu | – |
